Laboratory results as given in paper PMC3229523, “Identification of Lactoferricin B Intracellular Targets Using an Escherichia coli Proteome Chip” (PLoS ONE, 2011).
Ends that are not written are not given here. * marks the point of attachment. Biotin = O=C1N[C@H]2[C@H](CS[C@H]2CCCCC(=O)*)N1

Columns and labels:
Assay in all cases: peptide or protein array; E. coli proteome chip: purified His-tagged proteins printed in duplicate on Fullmoon slides, blocked with 1% BSA; 10 nM N-terminal biotinylated LfcinB with 1% BSA, room temperature, 1 h; detected with DyLight 649-labeled streptavidin, ratio to DyLight 549-labeled anti-His antibody; ProCAT normalisation, local cut-off; triplicate chips
Details in all cases: both partners purified
[1] = molecular target: T1, GidB (E. coli K-12, UniProt P0A6U5 1-207)
T1 construct: GidB, E. coli K-12
T1 sequence (looked up): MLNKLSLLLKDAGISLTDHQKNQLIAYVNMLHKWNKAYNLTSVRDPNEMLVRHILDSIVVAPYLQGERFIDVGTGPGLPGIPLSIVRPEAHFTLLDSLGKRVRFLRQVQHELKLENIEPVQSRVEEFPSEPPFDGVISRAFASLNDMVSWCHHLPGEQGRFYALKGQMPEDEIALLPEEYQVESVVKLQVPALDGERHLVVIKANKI

[2] = molecular target: T2, HisA (E. coli K-12, UniProt P10371 1-245)
T2 construct: HisA, E. coli K-12
T2 sequence (P10371 whole entry): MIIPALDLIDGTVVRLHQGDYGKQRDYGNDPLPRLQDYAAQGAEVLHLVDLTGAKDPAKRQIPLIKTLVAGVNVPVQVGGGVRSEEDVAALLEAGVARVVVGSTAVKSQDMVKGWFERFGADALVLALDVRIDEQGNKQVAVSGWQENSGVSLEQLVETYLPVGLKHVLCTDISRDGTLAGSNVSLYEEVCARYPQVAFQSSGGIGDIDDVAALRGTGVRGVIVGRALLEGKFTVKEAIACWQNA

[3] = molecular target: T3, GlyQ (E. coli K-12, UniProt P00960 1-303)
T3 construct: GlyQ, E. coli K-12
T3 sequence (looked up): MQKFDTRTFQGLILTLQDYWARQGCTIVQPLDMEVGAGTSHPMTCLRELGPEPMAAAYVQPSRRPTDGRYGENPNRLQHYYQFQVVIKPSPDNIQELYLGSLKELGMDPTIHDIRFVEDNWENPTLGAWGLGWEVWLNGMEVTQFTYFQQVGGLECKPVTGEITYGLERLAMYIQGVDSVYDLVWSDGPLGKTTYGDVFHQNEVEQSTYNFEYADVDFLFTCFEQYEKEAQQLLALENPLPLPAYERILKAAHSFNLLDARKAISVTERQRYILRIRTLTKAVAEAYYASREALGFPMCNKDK

[4] = molecular target: T4, MdoG (E. coli K-12, UniProt P33136 23-511)
T4 construct: MdoG, E. coli K-12
T4 sequence (looked up): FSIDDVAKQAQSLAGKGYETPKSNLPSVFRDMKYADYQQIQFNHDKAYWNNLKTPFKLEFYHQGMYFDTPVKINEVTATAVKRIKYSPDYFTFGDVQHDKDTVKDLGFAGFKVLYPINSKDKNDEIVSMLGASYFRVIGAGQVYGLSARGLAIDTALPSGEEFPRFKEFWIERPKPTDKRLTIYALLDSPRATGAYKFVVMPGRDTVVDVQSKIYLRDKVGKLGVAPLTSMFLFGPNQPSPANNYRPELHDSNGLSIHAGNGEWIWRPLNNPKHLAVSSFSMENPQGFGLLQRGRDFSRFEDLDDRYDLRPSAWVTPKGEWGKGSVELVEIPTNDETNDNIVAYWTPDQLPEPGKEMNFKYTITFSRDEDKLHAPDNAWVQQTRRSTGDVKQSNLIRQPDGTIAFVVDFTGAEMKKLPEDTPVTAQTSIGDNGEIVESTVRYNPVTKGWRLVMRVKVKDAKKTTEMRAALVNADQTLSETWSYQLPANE

[5] = molecular target: T5, YibB (E. coli K-12, UniProt P25666 1-285)
T5 construct: YibB, E. coli K-12
T5 sequence (looked up): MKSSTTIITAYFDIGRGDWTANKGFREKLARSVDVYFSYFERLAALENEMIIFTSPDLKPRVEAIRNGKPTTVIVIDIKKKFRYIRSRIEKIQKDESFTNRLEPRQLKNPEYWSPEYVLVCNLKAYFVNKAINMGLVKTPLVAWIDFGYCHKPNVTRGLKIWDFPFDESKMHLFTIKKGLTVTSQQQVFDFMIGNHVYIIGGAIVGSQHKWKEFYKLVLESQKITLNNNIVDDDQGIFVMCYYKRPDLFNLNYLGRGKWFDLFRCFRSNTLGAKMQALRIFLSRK

[6] = molecular target: T6, YbaE (E. coli K-12, UniProt P46890 1-566)
T6 construct: YbaE, E. coli K-12
T6 sequence (looked up): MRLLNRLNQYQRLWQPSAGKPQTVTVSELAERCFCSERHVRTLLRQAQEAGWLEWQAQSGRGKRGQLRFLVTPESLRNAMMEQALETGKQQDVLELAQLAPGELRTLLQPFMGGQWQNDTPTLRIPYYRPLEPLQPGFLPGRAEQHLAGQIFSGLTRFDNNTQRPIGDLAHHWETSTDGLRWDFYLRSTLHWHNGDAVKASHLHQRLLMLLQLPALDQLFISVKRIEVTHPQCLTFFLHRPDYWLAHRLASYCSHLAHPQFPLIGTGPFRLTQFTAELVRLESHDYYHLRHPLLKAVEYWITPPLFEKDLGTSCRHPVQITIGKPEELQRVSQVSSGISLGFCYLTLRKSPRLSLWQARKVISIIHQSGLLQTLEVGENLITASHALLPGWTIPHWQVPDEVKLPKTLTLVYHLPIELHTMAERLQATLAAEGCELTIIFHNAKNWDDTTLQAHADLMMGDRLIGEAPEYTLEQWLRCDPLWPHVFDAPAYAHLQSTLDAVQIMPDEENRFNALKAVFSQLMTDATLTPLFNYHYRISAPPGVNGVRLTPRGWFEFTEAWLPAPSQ

Measured: binding result

B1: N-terminal biotinylated Lactoferricin B (peptide, UniProt P24627 36-60, looked up)
peptide: Biotin-FKCRRWQWRMKKLGAPSITCVRRAF
modifications: ends and bridges not checked
notes: lactoferricin B (LfcinB), cationic antimicrobial peptide of 25 amino acids; also called biotinylated LfcinB; biotin-labeled LfcinB; source: bought: Kelowna Inc
binds: all assays above
